Source: PMC9179922

Biological target: Strep-tagged recombinant plasminogen activator inhibitor 1 (PAI-1) (human) (UniProt P05121)
Assay: pull-down; affinity chromatography: purified Strep-tagged PAI-1 (75 µL, 100 µg/mL) immobilised on Strep-Tactin Sepharose gravity flow columns; 2.0 mL medium with untagged vitronectin loaded and incubated 1 h; six washes with Buffer W, elution with Buffer E; Western blot with densitometry

Sequence of UniProt P05121 (P05121 24-402): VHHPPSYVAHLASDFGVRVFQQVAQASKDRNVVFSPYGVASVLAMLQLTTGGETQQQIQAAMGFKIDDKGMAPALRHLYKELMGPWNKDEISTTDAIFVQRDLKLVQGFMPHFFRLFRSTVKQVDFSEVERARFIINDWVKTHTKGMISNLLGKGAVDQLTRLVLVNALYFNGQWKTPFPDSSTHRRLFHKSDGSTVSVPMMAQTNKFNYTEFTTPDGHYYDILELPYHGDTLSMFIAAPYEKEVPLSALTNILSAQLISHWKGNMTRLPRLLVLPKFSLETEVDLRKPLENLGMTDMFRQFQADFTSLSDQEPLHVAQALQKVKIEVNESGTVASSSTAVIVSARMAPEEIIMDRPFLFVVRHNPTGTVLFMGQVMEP

- fold of vitronectin in the elution fraction against VTN rs704: C: 2.28 fold
Substance: untagged vitronectin isoform VTN_rs704: T (AMD risk-associated, Met400) (natural protein)
